Consider 15 sequences from a protein production outcome set (Wang et al. 2014).
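Further: failed if final PepcDB status was selected cloned or expressed and not failed if soluble or beyond.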

This series in a line: label from the status in PepcDB records.
As to “MGHHHHHHSHGSYANEISSSIIINRPAERLFDLWRKPETLPILMGHFASIEILNHTDSNWRINTPIGSLIEWQARIIDEKPGEYIHWRSLEGARVPNEGRLSFQPAASEAGTAVTLTIRYNPPGGLIGKKIGQMFDMFSRDMLTKTLYRFKKLAEDER”, the protein production result was “not failed”.
For “MGHHHHHHSHMALRDLCVVLLNGQHLEVKCDVESTVGAVFNAVTSFANLEELTYFGLAYMKSKEFFFLDSETR” the value was “failed”; for “MGHHHHHHSHMATSRYEPVAEIGVGAYGTVYKARDPHSGHFVALKSVRVPNGGGGGGGLPISTVREVALLRRLEAFEHPNVVRLMDVCATSRTDREIKVTLVFEHVDQDLRTYLDKAPPPGLPAETIKDLMRQFLRGLDFLHANCIVHRDLKPENILVTSGGTVKLADFGLARIYSYQMALTPVVVTLWYRAPEVLLQSTYATPVDMWSVGCIFAEMFRRKPLFCGNSEADQLGKIFDLIGLPPEDDWPRDVSLPRGAFPPRGPRPVQSVVPEMEESGAQLLLEMLTFNPHKRISAFRALQHSYLHK”, “failed”; for “MGHHHHHHSHMEFIVDSVDKTMHIGRQLGSLVNKGDILCLTGDLGTGKTHISKGIAEGLGIDEHITSPTFNIVNEYHSGRLTLYHFDVYRVNDPDEIEAIGFDEYIFGDGVSLIEWANYIEELIPEEYIHIKIEKLPDMGENFRKITINGYGDRYNYIKEIKE”, “failed”.
In the case of “MGHHHHHHSHMFASCHCVPRGRRTMKMIHFRSSSVKSLSQEMRCTIRLLDDSEISCHIQRETKGQFLIDHICNYYSLLEKDYFGIRYVDPEKQRHWLEPNKSIFKQMKTHPPY” it was “failed”; in that of “MGHHHHHHSHMGWDLTVKMLAGNEFQVSLSSSMSVSELKAQITQKIGVHAFQQRLAVHPSGVALQDRVPLASQGLGPGSTVLLVVDKSDEPLS”, “failed”.
In the case of “MGHHHHHHSHMLPVELVRHDVKKTDETSQVELMLQVDPDLFWFNGHFTGQPLLPGVAQLDWVMHYATTVLAQGWTFLSIENIKFQQPILPGKTLRLVLIWHAGKQSLTFSYSILEGDTERTASSGKIKLTPIMEDNPCQ” it was “not failed”; in that of “MGHHHHHHSHMPQFSPSYSFPVQIYYEDTDFSGVVYHPNFLKYFERAREHVIGAEQLRNLWQQQQLGFAVYRSDMLCHEGVEFADIIDIRTKFYFESKYRTVWHQEIWRPNGKKPAVTATIEMVCMNQARQLAPMPAELITQLSLGM”, “not failed”; in that of “MGHHHHHHSHMSNAEDIRDLVVTFLEGLRKRSKYVVALQDNPNPAGEESGFLSFAKGDLIILDHDTGEQVMNSGWANGINERTKQRGDFPTDCVYVMPTVTMPPREIVA”, “failed”.
“MGHHHHHHSHMSPFLRIGLSNFDCGSCQSCQGEAVNPYCAVLVKEYVESENGQMYIQKKPTMYPPWDSTFDAHINKGRVMQIIVKGKNVDLISETTVELYSLAERCRKNNGKTEIWLELKPQGRMLMNARYFLEMSDTK”: the protein production result is “not failed”.
For “MGHHHHHHSHMTCGAWEMKERLGTGGFGNVIRWHNQETGEQIAIKQCRQELSPRNRERWCLEIQIMRRLTHPNVVAARDVPEGMQNLAPNDLPLLAMEYCQGGDLRKYLNQFENCCGLREGAILTLLSDIASALRYLHENRIIHRD” the value was “failed”; for “MGHHHHHHSHNQEHQLGNNTLSSHLQIDKMTDNKTGEVLISENVVASIQPAEGSFEGDLKVPRMEEKEALVPIQKATDSFHTELHPRVAFWIIKLPRRRSHQDALE”, “failed”.
In the case of “MGHHHHHHSHSGNIRLETAAETQAFAEELGRHLEAGDVIILDGPLGAGKTTFTQGLARGLNVKGRVTSPTFVIAREHKSLSGGPSLVHVDAYRLIDDAAGATDPIGALDSLDLETELEDAVVVAEWGGGLVEQITDSYLLITFDRT” it was “not failed”.
“MGHHHHHHSHSLDSQKGQLVRGKVCEYSTDGAYIDIGGKAPAFLPKREAALHAVLDLEAHLPKDEELEFLVIRDQNEDGQVTVSLRALALEQAWTRVAELQEG”: the protein production entry is “not failed”.
For “MGHHKAMPYADVAAFIIELRKREAVAATALEFTILTAARSGETLGAKWHEIDWKDKIWTVPAERMKAAREHRVPLSSRTITILKKLAEFGSDENSFVFPGQKPGKPLSVMAMDMVLRRMEVDVTVHGFRSSFRDWCGEVSNFPRDVAEAALAHLEHHHHHH” the value was “not failed”.
